83 variants from the RNAGym collection of RNA variant scans (doi:10.1021/acssynbio.7b00057) can be followed below.

Sequences and labels used below:
B1: Pistol ribozyme (parent)
chain: GGGUCGUUGUUCCAUAAUCGCGUGGAUAUGGCACGCAAGUUUCUACCGGGCACCGUAAAUGUCCGACUGGAGCCGUUCGGGCGGCUAUAAACAGACCUCAGGCCCGAAGCGUGGCGGCACCUGCCGCCGGUGGUAAAAAAGAUCGGAAGAGCACACGUCU

The variants in the data set derive from B1. The data set can be described thus: aptazyme ON/OFF ratio, guanine; higher = stronger switching; co-transcriptional cleavage with and without guanine.
In the case of U8C U11G C12G C13A, the “aptazyme ON/OFF ratio” value worked out at 1.13.
With U8G G9A U10A U11G C12A the figure was 1.08; with U7G U8C G9U U10G C12A C13U, 1.24.
With U7G U8C G9A U10A U11G C12U, the “aptazyme ON/OFF ratio” value was determined as 1.26.
For U7G G9U U10G U11G C12G C13G, the “aptazyme ON/OFF ratio” value turned out to be 1.17.
For the variant U7G G9C U10G U11A C12A C13A, the “aptazyme ON/OFF ratio” value came to 1.13.
U8C G9C U10C U11C C12U C13A: the “aptazyme ON/OFF ratio” value turned out to be 1.05.
With U7C U8A G9A U10C C12A C13U the figure was 1.24; with U7G G9A U10A C12G C13G, 1.12; with U7C U8G G9U U10G U11A C12G C13U, 1.32.
Regarding G9A U10G C12U C13U, the “aptazyme ON/OFF ratio” value stood at 1.05.
With U7G U8C U10A C12A, the “aptazyme ON/OFF ratio” value was found to be 1.21.
Turning to U7A U8A G9C U10A C12G C13U, the “aptazyme ON/OFF ratio” value was 1.16.
U8G U11C C12U C13G: the “aptazyme ON/OFF ratio” value is 1.29.
With U7G U8G U10A C12G C13G the figure was 1.2; with U7G U8G U11A C12A C13U, 1.15; with U8G G9A U11G C12A C13G, 1.2.
On to U7A U8C G9A U10G U11A C12U, for which the “aptazyme ON/OFF ratio” value came to 1.04.
G9A U11A C12A C13A: the “aptazyme ON/OFF ratio” value was 1.33.
Take U7C U8A G9U U10A U11G C13A: the “aptazyme ON/OFF ratio” value turned out to be 1.16.
With U7A U8C U11G C12A C13G the figure was 1.12.
With U7A U8G C12A C13A the figure was 1.27.
With U7C U8C G9U U10C U11C C12G C13G the figure was 1.18.
As to U7G U8A G9A U10C U11A C13U, the “aptazyme ON/OFF ratio” value was found to be 1.12.
With U8G G9U U10C U11G C13A the figure was 1.04.
In the case of U7A G9U U10C U11G, the “aptazyme ON/OFF ratio” value stood at 1.32.
On to U7G U8G G9C U10G U11A, for which the “aptazyme ON/OFF ratio” value worked out at 1.32.
Turning to U7G G9A U10A U11A C12A C13A, the “aptazyme ON/OFF ratio” value came to 1.07.
On to U7G U8G G9A U10A U11G C13U, for which the “aptazyme ON/OFF ratio” value turned out to be 1.14.
Turning to U7C U8C G9U U10G U11C C12U C13U, the “aptazyme ON/OFF ratio” value was determined as 1.18.
Turning to U7G U8C G9U U10G U11A C12U C13A, the “aptazyme ON/OFF ratio” value was found to be 1.21.
U7A U8G G9C U10A U11G C12G: the “aptazyme ON/OFF ratio” value is 1.35.
For the variant U7C U11G C13A, the “aptazyme ON/OFF ratio” value came to 1.06.
For the variant U8G U10C U11C, the “aptazyme ON/OFF ratio” value is 1.19.
For the variant U7C U8C U10G U11C C12U C13A, the “aptazyme ON/OFF ratio” value was determined as 1.2.
Regarding U7A G9U U11C C12A, the “aptazyme ON/OFF ratio” value was 1.34.
In the case of U7C U8A G9U U10G C12G C13A, the “aptazyme ON/OFF ratio” value was determined as 1.12.
For U7A U8C G9C C12G C13G, the “aptazyme ON/OFF ratio” value was 1.09.
With G9U U10C U11A the figure was 3.16; with U7A U8A G9C U10C U11C C12U C13A, 1.01; with U8G G9U U10A U11C C13A, 1.02.
For the variant U7G U11A C12G, the “aptazyme ON/OFF ratio” value came to 1.18.
On to U7A G9A U10C C12A C13G, for which the “aptazyme ON/OFF ratio” value is 1.22.
Take U7A U8G G9A U10A U11A C12A C13U: the “aptazyme ON/OFF ratio” value was 1.29.
With U7G U8A G9A U10G U11A C12A C13A the figure was 1.04.
With U7C U8G G9U C13A the figure was 1.31; with U8G G9A U11C C12U C13A, 1.25; with U7A U8C G9C U10C U11C C12G, 1.03.
For the variant U7A U8G G9A U10C C12U C13G, the “aptazyme ON/OFF ratio” value came to 1.13.
With U8A U10C U11A C12G C13A, the “aptazyme ON/OFF ratio” value turned out to be 1.15.
As for U7G U8A G9A U10C C12G C13U, the “aptazyme ON/OFF ratio” value was determined as 1.28.
Take U8A G9A U10C C12G C13U: the “aptazyme ON/OFF ratio” value is 1.22.
With U7A U8A G9U U10A U11G C12G C13U the figure was 1.36; with U7C G9C U10C U11C C12A, 1.03; with U7C U8A G9A U10C U11G C12A, 1.05.
U7C U8G G9A U10G C13G: the “aptazyme ON/OFF ratio” value came out at 1.16.
For U8C G9A U10A U11C C12U C13G, the “aptazyme ON/OFF ratio” value turned out to be 1.14.
In the case of U8C G9A U10G U11A C12A C13G, the “aptazyme ON/OFF ratio” value amounted to 1.12.
Take U7G U8G U10A U11C C12G C13A: the “aptazyme ON/OFF ratio” value stood at 1.16.
As for U7G U8C G9A U10G U11C C12U, the “aptazyme ON/OFF ratio” value was 1.09.
Consider U7A U8C G9C U10A C13U, for which the “aptazyme ON/OFF ratio” value is 1.06.
Turning to U7C U8G U10C U11G C12A C13A, the “aptazyme ON/OFF ratio” value stood at 1.11.
Regarding U8C G9A U10C U11A C12G C13G, the “aptazyme ON/OFF ratio” value was determined as 1.5.
With U7A G9A U10C U11A the figure was 1.27.
For U8G U10A C12U C13A, the “aptazyme ON/OFF ratio” value was found to be 1.32.
Consider U7G U8G U10C U11C C13A, for which the “aptazyme ON/OFF ratio” value is 1.07.
With U7A U8C G9U U10C U11A C12G C13U the figure was 1.11.
On to U7A G9U U11G C12G C13U, for which the “aptazyme ON/OFF ratio” value stood at 1.14.
With U8C G9C U10G U11G C12U C13G, the “aptazyme ON/OFF ratio” value was 1.13.
Consider U7G C13U, for which the “aptazyme ON/OFF ratio” value came out at 1.09.
Turning to U10C C12U C13G, the “aptazyme ON/OFF ratio” value was determined as 1.1.
Take G9A U11A: the “aptazyme ON/OFF ratio” value is 2.53.
With U8G G9U U10G U11C C12G the figure was 1.03; with U7C U8C G9A U11A C12U C13G, 1.25.
For U7C U8G G9U U10C U11G C12U C13G, the “aptazyme ON/OFF ratio” value amounted to 1.22.
For U7A U8G U10C C12U, the “aptazyme ON/OFF ratio” value came to 1.5.
With U7G G9U U10G U11C the figure was 1.13; with U10C U11A C12A C13G, 1.36; with U8C G9A U11G C12A C13U, 1.27.
Regarding U7A U8A G9A U10C C12U C13G, the “aptazyme ON/OFF ratio” value turned out to be 1.15.
For the variant U7A U8A G9U U10C U11C C12A C13U, the “aptazyme ON/OFF ratio” value turned out to be 1.05.
Consider U7C U8C U10C U11A C12G C13A, for which the “aptazyme ON/OFF ratio” value came out at 1.15.
For U7C U8C U10G U11A C12A C13A, the “aptazyme ON/OFF ratio” value came to 1.11.
